Laboratory results from paper doi:10.1101/2022.11.10.512828.
Read-outs that look alike come from different tables or passages of the source.

Tests used:
[1] = biological target: LS-αICD chain of the co-expression construct (pETDuet1, first cloning site) (Saccharomyces cerevisiae | rat) (UniProt P50861); experiment: densitometry of Coomassie-stained SDS-PAGE bands of the purified complex; conditions: scale: βICD chains to 2 αICD chains in the pentamer
[2] = biological target: LS-αβICD, heteropentamer of two LS-αICD and three LS-βICD chains (Saccharomyces cerevisiae | rat) (UniProt P50861); experiment: SEC
[3] = biological target: LS-αβICD, heteropentamer of two LS-αICD and three LS-βICD chains (Saccharomyces cerevisiae | rat) (UniProt P50861); experiment: SEC; remark: listed apart in the source
[4] = biological target: LS-αβICD, heteropentamer of two LS-αICD and three LS-βICD chains (Saccharomyces cerevisiae | rat) (UniProt P50861); experiment: SEC; remark: listed apart in the source
[5] = biological target: LS-αβICD, heteropentamer of two LS-αICD and three LS-βICD chains (Saccharomyces cerevisiae | rat) (UniProt P50861); experiment: ITC
[6] = biological target: unmodified lumazine synthase from Saccharomyces cerevisiae (LS^wt) (Saccharomyces cerevisiae) (UniProt P50861); experiment: AUC
[7] = biological target: unmodified lumazine synthase from Saccharomyces cerevisiae (LS^wt) (Saccharomyces cerevisiae) (UniProt P50861); experiment: SEC

A stoichiometry N [1] of 3 was found for “LS-βICD chain of the co-expression construct (pETDuet1, second cloning site) (from UniProt P50861 1-138; P50861 139-169)” in this work.
An amount of gephyrin bound [2] of 4 nmol, a stoichiometry N (gephyrin trimers to 3 LS pentamers) [3] of 4 and an amount of gephyrin bound [4] of 3 nmol were found for “full-length rat gephyrin splice variant rC4 (natural protein)” in this work. For the same substance, the percent of gephyrin bound [4] was 75%, the stoichiometry N (gephyrin trimer per LS pentamer) [4] was 1 and the stoichiometry N (gephyrin trimers to 3 LS pentamers) [4] was 3. It also gave a Kd [5] of 0.49 µM and a stoichiometry N [5] of 0.57.
A Kd [5] of 0.68 µM and a stoichiometry N [5] of 0.41 were found for “gephyrin E-domain (GephE) dimer (domain or fragment)” in this work.
A stoichiometry N [6] of 5 and a stoichiometry N [7] of 5 were found for “unmodified lumazine synthase from Saccharomyces cerevisiae (LS^wt) (from UniProt P50861 2-169) (enzyme)” in this work.
